Reference: paper PMC8837605, “In vitro reconstitution of an efficient nucleotide excision repair system using mesophilic enzymes from Deinococcus radiodurans”

Key:
drUvrA1 [1] = target: T1, drUvrA1 (Deinococcus radiodurans, UniProt Q46577 1-1016); experiment: fluorescence polarization; 2.5 mM Mg2+, 2.5 mM ATP; Hill 1.34; 50 mM Tris pH 7.5, 50 mM KCl, 5 mM DTT, 0.01% Tween 20, 2.5 mM MgCl2, 2.5 mM ATP, 0.1 mg/mL BSA; room temperature; 2 nM DNA, 0-1 uM drUvrA1 (dimer); settings: protein: recombinant; tags: N-terminal His-tag removed by TEV; chain copies: 2; label: 5'-ATTO633 on strand 1; internal fluorescein-dT; blunt
drUvrA1 [2] = target: T1, drUvrA1; experiment: fluorescence polarization; 2.5 mM Mg2+, 2.5 mM ATP; Hill 2.10; 50 mM Tris pH 7.5, 50 mM KCl, 5 mM DTT, 0.01% Tween 20, 2.5 mM MgCl2, 2.5 mM ATP, 0.1 mg/mL BSA; room temperature; 2 nM DNA, 0-1 uM drUvrA1 (dimer); settings: protein: recombinant; tags: N-terminal His-tag removed by TEV; chain copies: 2; label: 5'-ATTO633 on strand 1; internal fluorescein-dT; blunt
drUvrA1 [3] = target: T1, drUvrA1; experiment: fluorescence polarization; 2.5 mM Mg2+, 2.5 mM ATP; Hill 0.97; 50 mM Tris pH 7.5, 50 mM KCl, 5 mM DTT, 0.01% Tween 20, 2.5 mM MgCl2, 2.5 mM ATP, 0.1 mg/mL BSA; room temperature; 2 nM DNA, 0-1 uM drUvrA1 (dimer); settings: protein: recombinant; tags: N-terminal His-tag removed by TEV; chain copies: 2; label: 5'-FAM on strand 1; blunt
drUvrA1 [4] = target: T1, drUvrA1; experiment: fluorescence polarization; 2.5 mM Mg2+, 2.5 mM ATP; Hill 0.92; 50 mM Tris pH 7.5, 50 mM KCl, 5 mM DTT, 0.01% Tween 20, 2.5 mM MgCl2, 2.5 mM ATP, 0.1 mg/mL BSA; room temperature; 2 nM DNA, 0-1 uM drUvrA1 (dimer); settings: protein: recombinant; tags: N-terminal His-tag removed by TEV; chain copies: 2; label: 5'-FAM on strand 1; blunt

T1 sequence (Q46577 whole entry): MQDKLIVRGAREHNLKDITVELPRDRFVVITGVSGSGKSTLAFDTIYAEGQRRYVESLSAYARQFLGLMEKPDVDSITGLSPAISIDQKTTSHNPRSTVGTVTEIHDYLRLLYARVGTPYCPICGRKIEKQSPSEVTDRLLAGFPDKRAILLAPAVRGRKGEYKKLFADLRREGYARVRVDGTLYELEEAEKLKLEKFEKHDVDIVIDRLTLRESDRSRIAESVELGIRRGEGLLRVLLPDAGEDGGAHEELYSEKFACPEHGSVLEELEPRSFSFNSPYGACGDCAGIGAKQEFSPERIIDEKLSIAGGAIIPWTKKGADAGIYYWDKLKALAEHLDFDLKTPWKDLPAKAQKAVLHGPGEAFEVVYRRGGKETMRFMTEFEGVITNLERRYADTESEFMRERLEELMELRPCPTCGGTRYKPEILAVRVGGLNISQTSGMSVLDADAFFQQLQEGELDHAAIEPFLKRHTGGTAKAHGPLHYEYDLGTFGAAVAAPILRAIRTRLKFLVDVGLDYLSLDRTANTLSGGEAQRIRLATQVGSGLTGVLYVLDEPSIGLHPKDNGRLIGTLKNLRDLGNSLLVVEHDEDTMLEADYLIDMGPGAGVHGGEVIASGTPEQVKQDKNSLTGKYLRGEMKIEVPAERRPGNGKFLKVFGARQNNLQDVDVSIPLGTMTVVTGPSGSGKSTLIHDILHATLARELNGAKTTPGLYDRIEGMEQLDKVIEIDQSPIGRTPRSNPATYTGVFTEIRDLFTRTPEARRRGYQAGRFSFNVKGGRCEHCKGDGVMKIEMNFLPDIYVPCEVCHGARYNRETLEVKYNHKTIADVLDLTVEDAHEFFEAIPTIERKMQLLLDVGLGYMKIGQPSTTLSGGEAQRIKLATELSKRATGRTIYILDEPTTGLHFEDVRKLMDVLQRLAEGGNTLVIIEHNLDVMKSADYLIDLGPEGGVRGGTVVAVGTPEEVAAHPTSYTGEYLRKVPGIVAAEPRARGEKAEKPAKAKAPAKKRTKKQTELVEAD

B1: F26-seq1 (dsDNA)
DNA 1: GACTACGTACTGTTACGGCTCCATCTCTACCGCAATCAGGCCAGATCTGC
DNA 2: GCAGATCTGGCCTGATTGCGGTAGAGATGGAGCCGTAACAGTACGTAGTC
modifications: fluorescein-conjugated dT at position 26 of strand 1
- Kd (drUvrA1 [1]): 0.009 ± 0.0007 µM

B2: F26-seq2 (dsDNA)
DNA 1: GTTAGCGAACGATACCTTCAGTAGATCAAGTCCTAGCTGACCGGTTCGGC
DNA 2: GCCGAACCGGTCAGCTAGGACTTGATCTACTGAAGGTATCGTTCGCTAAC
modifications: fluorescein-conjugated dT at position 26 of strand 1
- Kd (drUvrA1 [2]): 0.009 ± 0.0005 µM

B3: B26-seq1 (dsDNA)
DNA 1: B1 DNA 1
DNA 2: B1 DNA 2
modifications: biotin-conjugated dT at position 26 of strand 1
- Kd (drUvrA1 [3]): 0.128 ± 0.015 µM

B4: 5'-FAM-seq1 (seq1-FAM) (dsDNA)
DNA 1: B1 DNA 1
DNA 2: B1 DNA 2
- Kd (drUvrA1 [4]): 0.085 ± 0.012 µM
